Here are results for one substance from US20250283164.

For data set [1], the system named is GFP. The data set can be described thus: FP. The following applies: negative control, little affinity.
Data set [2] has as its system BamHI. As to the kind of experiment: FP. Conditions: negative control, little affinity.

pKd: −log10 of the molar value. Bounds are passed on as bounds.

random-sequence RNA: the pKd in data set [1] and in data set [2] was < 5.40 each time.
